Data taken from patent publication US20140011732A1.
Values belong to the binder of their own block, whether it stands above or below them. Non-standard residues stand in square brackets, D forms with d. No end group written: not given here. Aib = CC(C)(N)C(=O)O

Tests used:
[1] = target: human serum albumin (HSA) (human), P02768; experiment: competition SPA on biotinylated HSA, 125I acylated GLP-1 tracer; settings: remark: other sources report otherwise
[2] = target: human serum albumin (HSA) (human) (UniProt P02768); experiment: as above

EC50 [1]: 300 to 800 nM
B1: N-epsilon26-[(S)-4-Carboxy-4-({trans-4-[(19-carboxynonadecanoylamino)methyl]cyclohexanecarbonyl}amino)butyryl][Aib8,Arg34]GLP-1-(7-37) (peptide)
peptide: HAEGTFTSDVSSYLEGQAAKEFIAWLVRGRG
modifications: here or on the partner: Aib8; Lys26 N-epsilon carries the acyl side chain printed in the name; biotinylated

EC50 [2]: 300 to 800 nM
B2: N-epsilon23-[2-(2-[2-(2-[2-(2-((R)-3-[1-(17-Carboxyheptadecanoylamino)piperidin-4-ylcarbonylamino]-3-(carboxypropionylamino)ethoxy)ethoxy]acetylamino)ethoxy]eth … (peptide)
peptide: H[Aib]EGTFTSDVSSYLEGKAAREFIAWLVRGRG
modifications: not fully specified (residue 17); printed as N-epsilon23-[2-(2-[2-(2-[2-(2-(R)-3-[1-(17-Carboxyheptadecanoylamino)piperidin-4-ylcarbonylamino]-3-(carboxypropionylamino)ethoxy)ethoxy]acetylamino)ethoxy]ethoxy)acetyl][Aib8,Arg26,Arg 34]GLP-1-(7-37)
